Laboratory results: paper PMC5085138, “Novel CD7-specific nanobody-based immunotoxins potently enhanced apoptosis of CD7-positive malignant cells” (Oncotarget, 2016)

B1: VHH6, CD7-specific nanobody (VHH)
VHH: DVQLQESGGGLVQAGGSLRLSCAVSGYPYSSYCMGWFRQAPGKEREGVAAIDSDGRTRYADSVKGRFTISQDNAKNTLYLQMNRMKPEDTAMYYCAARFGPMGCVDLSTLSFGHWGQGTQVTVSI
notes: Selected from a phage library of animals immunized with Jurkat cells (llama in the results, Camelus dromedarius in the methods); Monomer by SEC; also called parental nanobody; source: E. coli BL21 (DE3), pET28a, purified (Ni-NTA)
B2: VHH10, CD7-specific nanobody (VHH)
VHH: DVQLQESGGGSVQAGGSLRLSCAASGYTHSSYCMAWFRQAPGREREGVASIDSDGTTSYADSVKGRFTISQDNAKNTLYLQMNSLKPEDTAMYYCAARFGPMGCVDLSTLSFGHWGQGTQVTVSI
notes: source: E. coli BL21 (DE3), pET28a, purified (Ni-NTA)
B3: CD7 on CD7-positive T-cell lines Jurkat and CEM (receptor)
chain: AQEVQQSPHCTTVPVGASVNITCSTSGGLRGIYLRQLGPQPQDIIYYEDGVVPTTDRRFRGRIDFSGSQDNLTITMHRLQLSDTGTYTCQAITEVNVYGSGTLVLVTEEQSQGWHRCSDAPPRASALPAPPTGSALPDPQTASALPDPPAASALPAALAVISFLLGLGLGVACVLARTQIKKLCSWRDKNSAACVVYEDMSHSRCNTLSSPNQYQ
notes: CD7, cell surface glycoprotein of the immunoglobulin superfamily, endogenous on the human T-ALL cell lines Jurkat and CEM; Also used as the target in the functional rows on patient-derived primary AML and T-ALL cells; source: endogenous, on Jurkat and CEM cells

Columns and labels:
Settings in all cases: one partner purified
[1] = target: B3; assay: flow cytometry on cells; nanobody or immunotoxin at different concentrations incubated with Jurkat cells on ice; detected with APC anti-HA or Alexa Fluor 488 anti-His antibody; saturation curves, Scatchard plots, nonlinear regression (Prism)
[2] = target: T1, PG002, bivalent CD7 nanobody-based immunotoxin (dVHH6-PE38-KDEL) (Pseudomonas (species )); assay: flow cytometry on cells
T1 construct: also called pET28a-dVHH6-PE38-KDEL; not shown: His6, N-terminal, kept

[3] = target: T2, PG001, monovalent CD7 nanobody-based immunotoxin (VHH6-PE38-KDEL) (Pseudomonas (species )); assay: flow cytometry on cells
T2 construct: also called pET28a-VHH6-PE38-KDEL; not shown: His6, N-terminal, kept

Binder	Kd [1]	Kd [2]	Kd [3]
B1	15.4 nM		
B2	29.6 nM		
B3		3.61 nM	16.7 nM
